Laboratory results as given in US20240117030A1 (Pfizer, published 2024).
Numbering of substitutions follows the chain as printed. Blank lines part the entries; values can stand above or below the binder they belong to.

Tests used:
[1] = biological target: T1, recombinant human TSLP (glycosylated long form) (human, UniProt Q969D9 29-159); test: cell-based or functional assay
[2] = biological target: T1, recombinant human TSLP (glycosylated …); test: cell-based or functional assay; remark: listed apart in the source
[3] = biological target: T2, human IL-13 (human, UniProt P35225 35-146); test: SPR 37°C, antibody captured by anti-human IgG, human IL-13 1.56-50 nM
T2 construct: mature; The Pfizer protein carries an N-terminal FLAG tag; bioassays used R&D Systems IL-13; also called hu IL-13; rHu IL-13

[4] = biological target: T2, human IL-13; test: cell-based or functional assay
[5] = biological target: T3, recombinant human IL-33 (R&D Systems 3625-IL), reduced with DTT (human, UniProt O95760 112-270, limits assumed); test: cell-based or functional assay
T3 sequence (looked up): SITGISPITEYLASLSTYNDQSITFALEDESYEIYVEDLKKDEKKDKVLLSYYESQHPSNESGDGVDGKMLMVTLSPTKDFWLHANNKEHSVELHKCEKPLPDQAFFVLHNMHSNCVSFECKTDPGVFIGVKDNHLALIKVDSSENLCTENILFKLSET

[6] = biological target: T2, human IL-13; test: cell-based or functional assay; remark: listed apart in the source
[7] = biological target: human TSLP (long form) (human, UniProt Q969D9 29-159, Biotinylated on the Avi tag in some assays; glycosylated (Expi293F expression)); test: cell-based or functional assay
[8] = biological target: T4, human IL-4 (human, UniProt P05112 25-153); test: cell-based or functional assay
T4 sequence (looked up): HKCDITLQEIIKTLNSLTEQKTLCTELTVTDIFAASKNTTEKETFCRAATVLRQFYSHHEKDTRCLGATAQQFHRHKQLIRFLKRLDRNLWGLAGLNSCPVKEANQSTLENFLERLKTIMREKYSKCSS

[9] = biological target: T5, human IL-4 (human, UniProt P05112 25-153); test: cell-based or functional assay; remark: listed apart in the source
T5 sequence (looked up): T4 sequence (looked up)

[10] = biological target: human IL-13 (human, UniProt P35225 35-146); test: cell-based or functional assay; remark: listed apart in the source

a-TSLP TARC bioassay (fold change to TSLP-0001) [1]: 3.4 fold
TARC bioassay (IC50, pM) [2]: 6.65 pM
B1: TSLP-0260 (antibody, V domains shown)
VH: QMQLVESGGGVVQPGRSLRLSCAASGFTFRTYGMHWVRQAPGKGLEWVAVIWYDGSNKHYADSVKGRFTISRDNSKNTLYLQMNSLRAEDTAVYYCARAPQWYLVHEAFDIWGQGTMVTVSS
VL: SYVLTQPPSVSVAPGQTARITCGGNNLGSKSVHWYQQKPGQAPVLVVYDDSDRPSWIPERFSGSNSGNTATLTISRGEAGDEADYYCQVWDESSDHVVFGGGTKLTVLG

TARC bioassay (IC50, pM) [2]: 4.25 pM
B2: TSLP-0156 (antibody, human IgG1, lambda, V domains shown)
VH: B1 VH
VL: B1 VL with E92S

IC50, IL-13-induced CCL17 secretion by 769-P cells [6]: 812 pM
fold lower potency than the mAb (TSLP-0855), monocyte TARC bioassay [7]: ~2.5 fold
IC50, IL-4-induced CCL17 secretion by 769-P cells [8]: 139 pM
B6: IL413TSLP-1028 (trispecific antibody)
heavy: not shown
chain 1: DIQMTQSPSSLSASVGDRVTITCKASESVDHFGWSLVHWYQQKPGKAPKLLIYRASNLESGVPSRFSGSGSGTDFTLTISSLQPEDFATYYCQQSNEDPWTFGGGTKVEIKRTVAAPSVFIFPPSDEQLKSGTASVVCLLNNFYPREAKVQWKVDNALQSGNSQESVTEQDSKDSTYSLSSTLTLSKADYEKHKVYACEVTHQGLSSPVTKSFNRGECGGGGSEVTLRESGPALVKPTQTLTLTCTFSGFSLSNFGEGLSWIRQPPGKGLEWLAHIYWDDDKRYNPSLKSRLTISKDTSRNQVVLTMTNMDPVDTATYYCARRETVFYWYFDVWGQGTTVTVSSASTKGPSVFPLAPSSKSTSGGTAALGCLVKDYFPEPVTVSWNSGALTSGVHTFPAVLQSSGLYSLSSVVTVPSSSLGTQTYICNVNHKPSNTKVDKKVEPKSCEKTHTCPPCPAPEAAGAPSVFLFPPKPKDTLMISRTPEVTCVVVDVSHEDPEVKFNWYVDGVEVHNAKTKPREEQYNSTYRVVSVLTVLHQDWLNGKEYKCKVSNKALPAPIEKTISKAKGQPREPQVYTLPPSREEMTKNQVSLTCEVKGFYPSDIAVEWESNGQPENNYKTTPPVLDSDGSFFLYSKLTVDKSRWQQGNVFSCSVLHEALHSHYTQKSLSLSPGK
light 1: SYVLTQPPSVSVAPGQTARITCGGNNLGSKSVHWYQQKPGQAPVLVVYDDSDRPSWIPERFSGSNSGNTATLTISRGEAGDEADYYCQVWDSSSKHVVFGGGTKLTVLGQPKAAPSVTLFPPSSEELQANKATLVCLISDFYPGAVTVAWKADSSPVKAGVETTTPSKQSNNKYAASSYLSLTPEQWKSHRSYSCQVTHEGSTVEKTVAPTECS
light 2: DIQMTQSPSSLSASVGDRVTITCRASQSVDEEGDSYMNWYQQKPGKAPKLLIYAASNLESGVPSRFSGSGSGTDFTLTISSLQPEDFATYYCQQSNKDPPTFGGGTKVEIKRTVAAPSVFIFPPSDEQLKSGTASVVCLLNNFYPREAKVQWKVDNALQSGNSQESVTEQDSKDSTYSLSSTLTLSKADYEKHKVYACEVTHQGLSSPVTKSFNRGEC
chain 2: EVQLVESGGGLVQPGGSLRLSCAASGFTFSSYAMSWVRQAPGKGLEWVASISSGDTTYYPDSVKGRFTISRDNAKNSLYLQMNSLRAEDTAVYYCARNEGYYFGLTLWGQGTLVTVSSASTKGPSVFPLAPSSKSTSGGTAALGCLVKDYFPEPVTVSWNSGALTSGVHTFPAVLQSSGLYSLSSVVTVPSSSLGTQTYICNVNHKPSNTKVDKKVEPKSC

IC50, IL-13-induced CCL17 secretion by 769-P cells [6]: 593 pM
fold lower potency than the mAb (TSLP-0871), monocyte TARC bioassay [7]: ~2.5 fold
IC50, IL-4-induced CCL17 secretion by 769-P cells [8]: 179 pM
B7: IL413TSLP-1037 (trispecific antibody)
heavy: not shown
chain 1: B6 chain 1
light 1: B6 light 1 with S51K, S92K, K95D
light 2: B6 light 2
chain 2: B6 chain 2

Second part, the binder before the results:

B3: IL13-0270 (antibody, V domains shown)
VH: EVQLVESGGGLVQPGGSLRLSCAASGFTFSSYAMSWVRQAPGKGLEWVASISTGDTTYYPDSVKGRFTISRDNAKNSLYLQMNSLRAEDTAVYYCARNEGYYFGLTLWGQGTLVTVSS
VL: DIQMTQSPSSLSASVGDRVTITCRASESVDHFGWSLVHWYQQKPGKAPKLLIYRADSLETGVPSRFSGSGSGTDFTLTISSLQPEDFATYYCQQSNEDPWTFGGGTKVEIK
notes: IgG1 effector-null/kappa IgG; also called IL13433-0270
Kd [3]: 93.2 pM
CD23: Fold versus IL13-0001 [4]: 0.67 fold
CD23 IC50 [pM] Ave. n = 2 [4]: 9 pM

B4: IL13-0271 (antibody, IgG1, V domains shown)
VH: B3 VH with L107Q, Q110R
VL: B3 VL
notes: IgG1 effector-null/kappa IgG; also called IL13433-0271
Kd [3]: 73.6 pM
CD23: Fold versus IL13-0001 [4]: 1.01 fold
CD23 IC50 [pM] Ave. n = 2 [4]: 5.9 pM

B5: IL33-0721 (antibody, IgG1, V domains shown)
VH: EVQLVESGGGLVQPGGSLRLSCAASGFEFSHYWMYWVRQAPGKGLEWVAAITPNAGEDYYPESVKGRFTISRDNAKNSLYLQMNSLRAEDTAVYYCARGYYRYTKYSLGYWGQGTLVTVSS
VL: DIQMTQSPSSLSASVGDRVTITCRASQPIHQFLDWYQQKPGKAPKLLIYFGHILQEGVPSRFSGSGSGTDFTLTISSLQPEDFATYYCFQYKQGWSFGGGTKVEIK
IC50 [nM] versus reduced human IL-33 (R&D), IC50 (AVE) [5]: 0.026 nM

B8: IL413TSLP-0252 (other)
heavy: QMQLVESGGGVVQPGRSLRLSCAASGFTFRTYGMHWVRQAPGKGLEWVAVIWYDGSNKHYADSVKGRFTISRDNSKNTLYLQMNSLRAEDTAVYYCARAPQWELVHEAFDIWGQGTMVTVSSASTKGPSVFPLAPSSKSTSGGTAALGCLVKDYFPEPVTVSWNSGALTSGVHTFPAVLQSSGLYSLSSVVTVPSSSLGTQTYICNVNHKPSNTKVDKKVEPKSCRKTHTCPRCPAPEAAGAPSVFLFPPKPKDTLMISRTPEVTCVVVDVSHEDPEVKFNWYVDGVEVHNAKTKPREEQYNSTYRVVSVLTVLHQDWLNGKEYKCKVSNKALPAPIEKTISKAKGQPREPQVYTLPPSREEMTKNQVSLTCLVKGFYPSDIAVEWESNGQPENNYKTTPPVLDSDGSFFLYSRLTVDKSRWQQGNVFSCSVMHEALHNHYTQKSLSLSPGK
chain 1: B6 chain 1 with P455E, L655M, S661N
light 1: B6 light 1 with K95D
light 2: B6 light 2 with R24K, E32D, K97E
chain 2: B6 chain 2
a-hIL-4 IC50 [pM] [9]: 3.65 pM
a-hIL-13 IC50 [pM] [10]: 11.2 pM

B9: IL413TSLP-0251 (other)
heavy: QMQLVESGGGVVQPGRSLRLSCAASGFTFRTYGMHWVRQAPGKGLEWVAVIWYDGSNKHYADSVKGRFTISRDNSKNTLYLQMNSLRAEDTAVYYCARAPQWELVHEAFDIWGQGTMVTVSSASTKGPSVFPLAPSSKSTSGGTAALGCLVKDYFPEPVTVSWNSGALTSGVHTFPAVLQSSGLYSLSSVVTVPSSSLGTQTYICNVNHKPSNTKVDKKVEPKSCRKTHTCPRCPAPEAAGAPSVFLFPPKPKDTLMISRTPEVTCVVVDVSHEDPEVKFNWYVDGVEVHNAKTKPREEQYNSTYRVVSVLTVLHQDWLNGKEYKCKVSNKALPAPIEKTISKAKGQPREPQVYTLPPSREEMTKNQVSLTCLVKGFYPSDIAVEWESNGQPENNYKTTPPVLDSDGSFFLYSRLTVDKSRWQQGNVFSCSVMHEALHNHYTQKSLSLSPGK
chain 1: EVQLVESGGGLVQPGGSLRLSCAASGFTFSSYAMSWVRQAPGKGLEWVASISSGDTTYYPDSVKGRFTISRDNAKNSLYLQMNSLRAEDTAVYYCARNEGYYFGLTLWGQGTLVTVSSRTVAAPSVFIFPPSDEQLKSGTASVVCLLNNFYPREAKVQWKVDNALQSGNSQESVTEQDSKDSTYSLSSTLTLSKADYEKHKVYACEVTHQGLSSPVTKSFNRGECGGGGSEVTLRESGPALVKPTQTLTLTCTFSGFSLSNFGEGLSWIRQPPGKGLEWLAHIYWDDDKRYNPSLKSRLTISKDTSRNQVVLTMTNMDPVDTATYYCARRETVFYWYFDVWGQGTTVTVSSASTKGPSVFPLAPSSKSTSGGTAALGCLVKDYFPEPVTVSWNSGALTSGVHTFPAVLQSSGLYSLSSVVTVPSSSLGTQTYICNVNHKPSNTKVDKKVEPKSCEKTHTCPECPAPEAAGAPSVFLFPPKPKDTLMISRTPEVTCVVVDVSHEDPEVKFNWYVDGVEVHNAKTKPREEQYNSTYRVVSVLTVLHQDWLNGKEYKCKVSNKALPAPIEKTISKAKGQPREPQVYTLPPSREEMTKNQVSLTCEVKGFYPSDIAVEWESNGQPENNYKTTPPVLDSDGSFFLYSKLTVDKSRWQQGNVFSCSVMHEALHNHYTQKSLSLSPGK
light 1: B6 light 1 with K95D
light 2: B6 light 2 with R24K, E32D, K97E
chain 2: DIQMTQSPSSLSASVGDRVTITCKASESVDHFGWSLVHWYQQKPGKAPKLLIYRASNLESGVPSRFSGSGSGTDFTLTISSLQPEDFATYYCQQSNEDPWTFGGGTKVEIKASTKGPSVFPLAPSSKSTSGGTAALGCLVKDYFPEPVTVSWNSGALTSGVHTFPAVLQSSGLYSLSSVVTVPSSSLGTQTYICNVNHKPSNTKVDKKVEPKSC
a-hIL-4 IC50 [pM] [9]: 6.11 pM
a-hIL-13 IC50 [pM] [10]: 13.7 pM
